# T1: translin (wild-type, native) (Drosophila melanogaster, UniProt Q7JVK6 1-235)
# T1 sequence: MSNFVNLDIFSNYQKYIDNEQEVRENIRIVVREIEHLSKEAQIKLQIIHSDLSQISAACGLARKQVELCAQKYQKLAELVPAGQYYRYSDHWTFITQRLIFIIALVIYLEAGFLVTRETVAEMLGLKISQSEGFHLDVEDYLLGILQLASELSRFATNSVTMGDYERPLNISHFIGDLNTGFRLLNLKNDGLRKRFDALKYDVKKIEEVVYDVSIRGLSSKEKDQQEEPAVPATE
# Assays:
# [1] = target: human translin (wild-type) (human, UniProt Q15631 1-228); test: EMSA
# [2] = target: T1, translin (wild-type, native); test: EMSA
# human translin (wild-type), sequence (Q15631 whole entry): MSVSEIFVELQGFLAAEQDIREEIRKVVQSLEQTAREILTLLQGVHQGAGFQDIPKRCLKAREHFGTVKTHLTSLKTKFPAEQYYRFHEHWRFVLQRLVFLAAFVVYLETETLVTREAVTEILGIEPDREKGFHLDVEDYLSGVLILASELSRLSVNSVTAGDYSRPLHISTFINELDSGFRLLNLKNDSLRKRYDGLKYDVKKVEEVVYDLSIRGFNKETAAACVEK
binder,measurement,setting,value
GCCCTCCTGCCCTCCTTCCGCGGG (ssDNA) [Bcl-CL1 24-mer ssDNA],binding result,[1],binds
same,binding result,[2],binds
